In patent US11466286B2, “Methods and compositions for conferring and/or enhancing herbicide tolerance using protoporphyrinogen oxidase or variant thereof” (FarmHannong Co., Ltd., priority 2016, dated 2022):
Changes are numbered by the printed parent chain. In names and notes the source's numbering stands.

B1: CyPPO13 P316A + V318L: CyPPO13 (SEQ ID NO: 4) PPO variant (protein)
chain: MNPATPEPLNAEVVVIGAGISGLTLAWRLQQGLSARGGSPQAVLLAEASSRVGGCISTQSKDGYRWEEGPNSFTPTPALLNLIAEVGLTDQLVLADAKLPRYIYWEGALLPVPLSPAAALGSRLLSVGGKLRALQGLLGFVPPPPGHEETVRQFFRRQLGSEVAERLVEPFTSGVYAGDPDQLSAVAAFPRVAGLEERYGSLFAGALQALRQRPQPSPAAIQPPPKRGQLGNLRQGLQQLPEALAQKLGDSLRLGWRALQLKRAGELYWVGFETPEGSRWVAARQVVLALPAYEAAALLQELNPPASQLLAEILYAPLAVVALAYPQEALPQPLRGFGHLIPRSQGLRTLGTIWASCLFPERAPQGYHSFLSFLGGATDAALARRRGIPPIPALSPEERAQIAHAELSQVLLTRRAEPVYLGERLWPRAIPQYTLGHRQRIAQVQAHLASQTPGIWVCANYLDGVALGDCVRRAEALAQQLLSQV
modifications: Synthetic CyPPO13
B2: CyPPO13 P316L + V318L: CyPPO13 (SEQ ID NO: 4) PPO variant (protein)
chain: B1 chain with A316L
modifications: Synthetic CyPPO13
B3: CyPPO13 A177C + F373T: CyPPO13 (SEQ ID NO: 4) PPO variant (protein)
chain: B1 chain with A177C, A316P, L318V, F373T
modifications: Synthetic CyPPO13
B4: CyPPO13 G194M + F373M: CyPPO13 (SEQ ID NO: 4) PPO variant (protein)
chain: B1 chain with G194M, A316P, L318V, F373M
modifications: Synthetic CyPPO13
B5: CyPPO13 A177L + F373V: CyPPO13 (SEQ ID NO: 4) PPO variant (protein)
chain: B1 chain with A177L, A316P, L318V, F373V
modifications: Synthetic CyPPO13
B6: CyPPO13 R101A: CyPPO13 (SEQ ID NO: 4) PPO variant (protein)
chain: B1 chain with R101A, A316P, L318V
modifications: Synthetic CyPPO13
B7: CyPPO13 F171A: CyPPO13 (SEQ ID NO: 4) PPO variant (protein)
chain: B1 chain with F171A, A316P, L318V
modifications: Synthetic CyPPO13
B8: CyPPO13 I353T: CyPPO13 (SEQ ID NO: 4) PPO variant (protein)
chain: B1 chain with A316P, L318V, I353T
modifications: Synthetic CyPPO13
B9: CyPPO13 E340T: CyPPO13 (SEQ ID NO: 4) PPO variant, printed E340T, probably L340T (protein)
chain: B1 chain with A316P, L318V, L340T
modifications: Synthetic CyPPO13
B10: CyPPO13 G194K + F373M: CyPPO13 (SEQ ID NO: 4) PPO variant (protein)
chain: B1 chain with G194K, A316P, L318V, F373M
modifications: Synthetic CyPPO13
B11: CyPPO13 A177L: CyPPO13 (SEQ ID NO: 4) PPO variant (protein)
chain: B1 chain with A177L, A316P, L318V
modifications: Synthetic CyPPO13
B12: CyPPO13 G194E + F373M: CyPPO13 (SEQ ID NO: 4) PPO variant (protein)
chain: B1 chain with G194E, A316P, L318V, F373M
modifications: Synthetic CyPPO13
B13: CyPPO13 V175C: CyPPO13 (SEQ ID NO: 4) PPO variant (protein)
chain: B1 chain with V175C, A316P, L318V
modifications: Synthetic CyPPO13
B14: CyPPO13 A177C + F373V: CyPPO13 (SEQ ID NO: 4) PPO variant (protein)
chain: B1 chain with A177C, A316P, L318V, F373V
modifications: Synthetic CyPPO13
B15: CyPPO13 F337V: CyPPO13 (SEQ ID NO: 4) PPO variant (protein)
chain: B1 chain with A316P, L318V, F337V
modifications: Synthetic CyPPO13
B16: CyPPO13 G194Q + F373M: CyPPO13 (SEQ ID NO: 4) PPO variant (protein)
chain: B1 chain with G194Q, A316P, L318V, F373M
modifications: Synthetic CyPPO13
B17: CyPPO13 G194R + F373M: CyPPO13 (SEQ ID NO: 4) PPO variant (protein)
chain: B1 chain with G194R, A316P, L318V, F373M
modifications: Synthetic CyPPO13
B18: CyPPO13 V318M: CyPPO13 (SEQ ID NO: 4) PPO variant (protein)
chain: B1 chain with A316P, L318M
modifications: Synthetic CyPPO13

System: PPO-deficient BT3 E. coli (ΔPPO)
Test: Herbicide tolerance of PPO-deficient BT3 E. coli transformed with CyPPO10/CyPPO13 wild type or mutant genes on herbicide-containing LB agar
Type: cell-based
Set-up: key: the level of herbicide tolerance of the wild type was represented by “−”; if higher, adding “+” to the max “+++++”; if higher, adding “+” to the max “+++++”; if higher, adding “+” to the max “+++++”; if higher, adding “+” to the max “+++++”; if higher, adding “+” to the max “+++++”
Conditions: BT3 E. coli with CyPPO13 gene; relative to CyPPO13 wild type
Excerpt: In order to enhance PPO-inhibiting herbicide tolerance of CyPPO10 and CyPPO13, the amino acids interacting with herbicide, as identified in the Example 3, were mutated. After PPO-deficient BT3 E. coli (ΔPPO) was transformed with a PPO gene having such mutation, and then cultured with PPO-inhibiting herbicide, to observe the growth of transformed E. coli, as follows:
The pET303-CyPPO10 or pET303-CyPPO13 plasmids prepared in the Example 4, and plasmids containing each mutant gene, were transformed into BT3 competent cell by a heat shock method, and cultured in a LB agar medium containing ampicillin (100 μg/ml).
For seed culture of BT3 transformants, a single colony thereof was cultured in 3 ml of LB broth (LPSS) containing ampicillin for 12 hours or more, and 50˜100 μl of the cultured solution was further cultured until absorbance (OD600) reaches 0.5 to 1. Then, the obtained cultured solution was diluted with LB broth to adjust absorbance (OD600) to 0.5, and was diluted again 5 times by a factor of one tenth with LB broth.
LB (25 g/L), Bacto agar (12 g/L), ampicillin (100 μg/ml) and various herbicides (0˜200 μM) were mixed, to prepare herbicide-containing media.
Ten microliters of the diluted solution were dropped on the herbicide-containing media, and the media were incubated with light for 16-20 hours at 37° C. The growth level and PPO-inhibiting herbicide tolerance of BT3 transformed with each gene were evaluated.
The herbicide tolerance was evaluated relatively compared to CyPPO wild type, and shown in following Tables 8 to 11 and FIGS. 11 to 29:
In the Tables 8 to 11, the level of herbicide tolerance of the wild type was represented by “−”, and the level of herbicide tolerance was graduated by representing the equal level of tolerance by “−”, and if higher, adding “+” to the max “+++++”.
FIGS. 11 to 19 (wild type and variants of CyPPO10) and FIGS. 20 to 29 (wild type and variants of CyPPO13) show the results of culturing E. coli transformed with CyPPO genes (wild type and variant type), and the concentration described on the top is concentration of herbicide treated. Six columns of each concentration were sequentially diluted 5 times by a factor of one tenth with the E. coli culture solution to the right, and the most left column is the result of E. coli culture solution OD600=0.5.

| Molecule | Herbicide tolerance level, Acifluorfen (up to 200 μM) | Herbicide tolerance level, Fomesafen (up to 200 μM) | Herbicide tolerance level, Pyraclonil (up to 200 μM) | Herbicide tolerance level, Pyraflufen-ethyl (up to 200 μM) | Herbicide tolerance level, Sulfentrazone (up to 200 μM) |
| --- | --- | --- | --- | --- | --- |
| B1 | +++ | − | − | + | − |
| B2 | +++ | ++ | − | + | + |

System: CyPPO13
Test: PPO enzyme activity and IC50 by herbicides, CyPPO13 wild type and variants (MBP-PPO fusion)
Type: biochemical, Synechococcus sp. JA-3-3Ab
Conditions: PPO enzyme activity of CyPPO13 protein, wild type = 100
Protocol: The enzyme activities of PPO protein and PPO protein variants were examined, and inhibition assay by PPO-inhibiting herbicides was conducted. It was confirmed that the PPO protein has low water-solubility, but in case of being expressed as a fusion protein with MBP (maltose binding protein) (MBP-PPO), the PPO protein is able to be stably expressed as water-soluble form. Therefore, the wild type and variant proteins which were expressed in the form of fusion protein with MBP were used in the present test (refer to FIG. 4).
In order to express wild type genes and mutant genes of CyPPO10 and CyPPO13 (refer to Example 1 and Example 4), those genes were introduced to pMAL-c2X vector (refer to FIG. 5) respectively, and then cloned to BL21 (DE3) E. coli (CodonPlus).
The enzyme activity of the purified wild type protein and variant proteins of CyPPO10 and CyPPO13 was measured by the following process.
At first, a substrate of PPO protein, Protoporphyrinogen IX was synthesized. This process was performed in the space where nitrogen gas is streamed. 6 mg of protoporphyrin IX was dissolved in 20% (v/v) EtOH 20 ml, and stirred under dark condition for 30 minutes. The obtained protoporphyrinogen IX solution was put into a 15 ml screw tube in an amount of 800 and flushed with nitrogen gas for 5 minutes. To this, 1 g of sodium amalgam was added and vigorous shaking was performed for 2 minutes. The lid was open to exhaust hydrogen gas in the tube. Thereafter, the lid was closed and incubated for 3 minutes. The […] was filtered using syringe and cellulose membrane filter. To 600 μl of the obtained […], 2M MOPS [3-(N-morpholino)propanesulfonic acid] was added in an amount of approximately 300 thereby adjusting pH to 8.0. To determine the enzyme activity of PPO protein, a reaction mixture was prepared with the following composition (based on 10 ml): 50 mM Tris-Cl (pH 8.0); 50 mM NaCl; 0.04% (v/v) Tween 20; 40 mM glucose (0.072 g); 5 units glucose oxidase (16.6 mg); and 10 units catalase (1 μl).
Two hundred microliters (200 μl) of reaction mixture containing a purified PPO protein were placed in 96 well plates, and preincubated for 30 min at room temperature to reduce the oxygen concentration by the reaction of glucose oxidase-catalase. The mineral oil was layered and then the reaction was initiated by adding the substrate, […], to a final concentration of 50 μM. The reaction proceeded at room temperature for 30 min and the fluorescence of protoporphyrin IX was measured using Microplate reader (Sense, Hidex) (excitation: 405 nm; emission: 633 nm). To calculate the PPO enzyme activity, protoporphyrinogen IX solution was kept open in the air to oxidize the solution (overnight). To this, 2.7N HCl was added, and the absorbance at 408 nm was measured. A standard curve was generated using standard protoporphyrin IX, and the PPO activity was measured by calibration of protoporphyrin IX using the standard curve of protoporphyrin IX.
The final concentration of each herbicide was as follows: […]

| Molecule | Activity (%) |
| --- | --- |
| B3 | 80 |
| B4 | 43 |
| B5 | 49 |
| B6 | 87 |
| B7 | 70 |
| B8 | 62 |
| B9 | 83 |
| B10 | 41 |
| B11 | 97 |
| B12 | 32 |
| B13 | 94 |
| B14 | 56 |
| B15 | 88 |
| B16 | 37 |
| B17 | 35 |
| B18 | 81 |
